The source of these data is patent US20080220450A1, “Population Based Prediction Methods for Immune Response Determinations and Methods for Verifying Immunological Response Data” (Danisco US, Inc., Genencor Division, priority 2004, published 2008).

The target in the experiment is HLA-DR6(13) (human). The experiment is described as follows: competition assay against a standard peptide on purified HLA class II.

By IC50 is commonly meant the concentration needed to halve the response being measured. A lower IC50 goes with greater potency.

Consider “B. amyloliquifaciens subtilisin BPN' Y217L epitope peptide, amino acids 70-84 (from UniProt P00782 177-191)”, for which the IC50 came to 690 pM.
